Reference: article PMC12197871
Numbering of substitutions follows the chain as printed. In names and notes the source's numbering stands.

B1: WT GsLDH (Geobacillus stearothermophilus) (protein)
chain: MKNNGGARVVVIGAGFVGASYVFALMNQGIADEIVLIDANESKAIGDAMDFNHGKVFAPKPVDIWHGDYDDCRDADLVVICAGANQKPGETRLDLVDKNIAIFRSIVESVMASGFQGLFLVATNPVDILTYATWKFSGLPHERVIGSGTILDTARFRFLLGEYFSVAPQNVHAYIIGEHGDTELPVWSQAYIGVMPIRKLVESKGEEAQKDLERIFVNVRDAAYQIIEKKGATYYGIAMGLARVTRAILHNENAILTVSAYLDGLYGERDVYIGVPAVINRNGIREVIEIELNDDEKNRFHHSAATLKSVLARAFTR
B2: Triple mutant (Geobacillus stearothermophilus; N293S/Q189L/R104C) (protein)
chain: B1 chain with R104C, Q189L, N293S
B3: Gln189Leu (Geobacillus stearothermophilus; Q189L) (protein)
chain: B1 chain with Q189L

Key:
[1] = substrate: CC(=O)C(=O)O; test: purified protein, by the assay type; details: pH 6.5
[2] = substrate: CC(=O)C(=O)O; test: purified protein, by the assay type; format: biochemical; details: pH 6.5

Protein | K0.5 [1] [mM] | K0.5 [2] [mM] | kcat [2] [s⁻¹]
B1 | 2.8 ± 0.4 |  | 
B2 |  | 0.41 ± 0.09 | 57 ± 8
B3 |  | 2.3 ± 0.2 | 73 ± 12
